Measurements from the nanobody polyreactivity screen of Harvey et al. (2022).

Test: yeast display, Sf9 membrane polyspecificity reagent, FACS + sequencing; frameworks hold sequencing errors
Outline: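 Sorting gates, low and high (top ~1%), were placed on anti-HA fluorescence to track expression and on streptavidin fluorescence to track reagent binding. A clone's polyreactivity label is taken from the gate it came out of. The reagent was 10% biotinylated, detergent-solubilized Sf9 membrane, applied for 1 hour at 4 °C to galactose-induced yeast display cells.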

**Q.** For “QVQLVESGGGLVQAGGSLRLSCAASGFIFRRYALGWYRQAPGKERELVAAISWGGTSTYYADSVKGRFTISRDNAKNTVYLQMNSLKPVDTAGYYCAADRSVRTRGGFDYWGQGTQVTVSS”, which “polyreactivity (PSR sort gate)” value is on record?
**A.** high polyreactivity

**Q.** With “QVQLVESGGGLVQAGGSLRLSCAASGFIFRRYAMGWYRQAPGKERELVAAIRSDGSTNYADSVKGRFTISRDNAKNTVYLQMNSLKPEDTAVYDCAATYYSYTWFSQYYYWGQGTQVTVSS” as the sequence, how does the “polyreactivity (PSR sort gate)” value read?
**A.** high polyreactivity

**Q.** For “QVQLVESGGGLVQAGGSLRLSCAASGFIFRRYAMGWYRQAPGKERELVAAITSSGTSTYYADSVKGRFTISRDNAKNTVYLQMNSLKPEDTAVYYCNAAQYYERFNHWGQGTQVTVSS”, which “polyreactivity (PSR sort gate)” value is on record?
**A.** high polyreactivity

**Q.** Which “polyreactivity (PSR sort gate)” value does the source give for “QVQLVESGGGLVQAGGSLRLSCAASGFIFRRYVMGWYRQAPGKERELVAAISYGGGSTYYADSVKGRFTISRDNAKNTVYLQMNSLKPEDTAVYYCAARVYYDAYDYWGQGTQVTVSS” here?
**A.** high polyreactivity

**Q.** With “QVQLVESGGGLVQAGGSLRLSCAASGFIFRSYAMGWYRQAPGKERELVAAINSRAGNTYYADSVKGRFTISRDNAKNTVYLQINSLKPEDNAVYYCNAVRHTYGYYSWGQGTQVTVSS” as the sequence, how does the “polyreactivity (PSR sort gate)” value read?
**A.** high polyreactivity

**Q.** With “QVQLVESGGGLVQAGGSLRLSCAASGFIFRTYAMGWYRQAPRKERELVAAITYSAGSTYYADSVKGRFTISRDNAKNTVYLQMNSLKPEDTAVYYCNVRKTWYGYSVTGRYDYWGQGTQVTVSS” as the sequence, how does the “polyreactivity (PSR sort gate)” value read?
**A.** low polyreactivity

**Q.** Which “polyreactivity (PSR sort gate)” value does the source give for “QVQLVESGGGLVQAGGSLRLSCAASGFIFRWYAMGWYRQAPGKERELVAANSSGSSTTYADSVKGRFTISRDNAKNTVYLQMNSLKPEDTAVYYCNRGPRIYRYQYDYWGQGTQVTVSS” here?
**A.** high polyreactivity

**Q.** For “QVQLVESGGGLVQAGGSLRLSCAASGFIFRWYAMGWYRQAPGKERELVASIDSSGTRTYYADSVKGRFTISRDNAKNTVYLQMNSLKPEDTAVYYCNAEPSSLGETDYDYWGQGTQVTVSS”, which “polyreactivity (PSR sort gate)” value is on record?
**A.** low polyreactivity

**Q.** For “QVQLVESGGGLVQAGGSLRLSCAASGFIFRWYTMGWYRQAPGKERELVAAISSSGGTTYYADSVKGRFTISRDNAKNTVYLQMNSLKPEDTAVYYCTTRYPLGGTYTRYPLKGDYWGQGTQVTVSS”, which “polyreactivity (PSR sort gate)” value is on record?
**A.** high polyreactivity

**Q.** Which “polyreactivity (PSR sort gate)” value does the source give for “QVQLVESGGGLVQAGGSLRLSCAASGFIFRYFAMGWYRQAPGKERELVAAISRSGGSTYYADSVKGRFTISRDNAKNTVYLQMNSLKPEDTAVYYCAAKDGRSYYDLSPMDYWGQGSQVTVSS” here?
**A.** low polyreactivity

**Q.** For “QVQLVESGGGLVQAGGSLRLSCAASGFIFRYNAMGWNRQAPGKERELVARINSGVSTNYADSVKGRFTISRDNAKNTVYLQMNSLKPEDTAVYYCNARVRRGYSRFDYWGQGTQVTVSS”, which “polyreactivity (PSR sort gate)” value is on record?
**A.** high polyreactivity

**Q.** Which “polyreactivity (PSR sort gate)” value does the source give for “QVQLVESGGGLVQAGGSLRLSCAASGFIFRYNAMGWYRQAPGKERELVAAISSGGSTNYADSVKGRFTISRDNAKNTVYLQMNSLKPEDTAVYYCAADVEQYYPLLTFDFWGQGTQVTVSS” here?
**A.** low polyreactivity

**Q.** Which “polyreactivity (PSR sort gate)” value does the source give for “QVQLVESGGGLVQAGGSLRLSCAASGFIFRYNAMGWYRQAPGKERELVAAISSSGGSTYYADSVKGRFTISRDNAKNTVYVQMNSLKPEDTAVDYCNAYNYGYIGYGYNYWGQGTQVTVSS” here?
**A.** high polyreactivity

**Q.** Which “polyreactivity (PSR sort gate)” value does the source give for “QVQLVESGGGLVQAGGSLRLSCAASGFIFRYNAMGWYRQAPGKERELVASISYSGARTYYADSVKGRFTISRDNEKNTVYLQMNSLKPEDTAVYYCATGPLSYVRYYYWGQGTQVTVSS” here?
**A.** low polyreactivity

**Q.** For “QVQLVESGGGLVQAGGSLRLSCAASGFIFRYNTMGWYRQPPGKERELVAAISVSGARTYYADSVKGRFTLSRDNAKNTVYLQMNSLKPEDTAVYYCNRRYPLYSRYNNDYWGQGTQVTVSS”, which “polyreactivity (PSR sort gate)” value is on record?
**A.** high polyreactivity

**Q.** For “QVQLVESGGGLVQAGGSLRLSCAASGFIFRYYAKGWYREAPGKERELVAAITSGGASTYYADSVKGRFRISRDNAKNTVYLQMNSLKPEDTPVYYCAADTSSYSEYDYWGQGTQVTVSS”, which “polyreactivity (PSR sort gate)” value is on record?
**A.** low polyreactivity

**Q.** Which “polyreactivity (PSR sort gate)” value does the source give for “QVQLVESGGGLVQAGGSLRLSCAASGFIFRYYAMGWYIQAPWKERELVAAIRRGRSTYYADSVKGRFTISRDNAKYTVYLQMNSLKPEDTAVDYCAVRLVSRFGISSYDYWGQGTQVTVSS” here?
**A.** high polyreactivity

**Q.** Which “polyreactivity (PSR sort gate)” value does the source give for “QVQLVESGGGLVQAGGSLRLSCAASGFIFRYYAMGWYRPAPGKERELVATISSGGGTHYADSVKGRFTISRDNAKNTVYLQMNSLKPEDAAVYYCNARGYRRLRTRVDYWGQGTQVTVSS” here?
**A.** high polyreactivity

**Q.** Which “polyreactivity (PSR sort gate)” value does the source give for “QVQLVESGGGLVQAGGSLRLSCAASGFIFRYYAMGWYRQAPGKERELVAAISGSGGSTYYADSVKGRFTISRDNAKNTVYLQMNSLKPEDTAVYYCNKGRGRVYGIYDYWGQGTQVTVSS” here?
**A.** high polyreactivity

**Q.** For “QVQLVESGGGLVQAGGSLRLSCAASGFIFRYYAMGWYRQAPGKERELVAAISNNAGRTYYADSVKGRFTISRDNAKNTVYLQMNSLKPEDTAVYYCAARVWTGRKYDYWGQGTQVTVSS”, which “polyreactivity (PSR sort gate)” value is on record?
**A.** high polyreactivity

**Q.** With “QVQLVESGGGLVQAGGSLRLSCAASGFIFRYYAMGWYRQAPGKERELVAAISWSGGSTYYADSVKGRFTISRDNAKNTVYLQMNSLKPEDTAVYYCNAVTTYGEYDYWGHGTQVTVSS” as the sequence, how does the “polyreactivity (PSR sort gate)” value read?
**A.** high polyreactivity

**Q.** For “QVQLVESGGGLVQAGGSLRLSCAASGFIFRYYAMGWYRQAPGKERELVAAISWSGTRTFYADSVKGRFTISRDNAKNTVYLQMNSLKPEDTAVYYCAAETTGYDSYIQYEYWGQGTQVTVSS”, which “polyreactivity (PSR sort gate)” value is on record?
**A.** high polyreactivity

**Q.** Which “polyreactivity (PSR sort gate)” value does the source give for “QVQLVESGGGLVQAGGSLRLSCAASGFIFRYYAMGWYRQAPGKERELVAAITRGGSTYYADSVKGRFTISRDNAKNTVYLQMNSLKPEDTAVYYCAARLYTQYYYWGQGTQVTVSS” here?
**A.** high polyreactivity

**Q.** Which “polyreactivity (PSR sort gate)” value does the source give for “QVQLVESGGGLVQAGGSLRLSCAASGFIFRYYAMGWYRQAPGKERELVAGISSSGASTYYADSVKGRFTISRDNAKYTVYLLMNSLKPEDTAVYYCAARRQRDRYGYWGQGTQVTVSS” here?
**A.** high polyreactivity

**Q.** For “QVQLVESGGGLVQAGGSLRLSCAASGFIFRYYAMGWYRQAPGKERELVARINRSGGSTYYADSVKGRFTISRDNAKNTVYLQMNSLKPEDTAVYYCAKDRTSYYSWYGYWGQGTQVTVSS”, which “polyreactivity (PSR sort gate)” value is on record?
**A.** high polyreactivity

**Q.** For “QVQLVESGGGLVQAGGSLRLSCAASGFIFRYYAMGWYRQAPGKERVLVARITPRGGRTYYADSVKGRFTISRDNAKNTVYLQMNSLKPEDTAVYYCAAVYPVLHEFGYWGQGTQVTVSS”, which “polyreactivity (PSR sort gate)” value is on record?
**A.** high polyreactivity

**Q.** For “QVQLVESGGGLVQAGGSLRLSCAASGFIFRYYAMGWYRQAPGKETELVAAINRGGGTNYADSVKGRFTISRDNAKNTVYLQLNSLKPEDTAVYYCAAVIRTVRERYGYWGQGTQVTVSS”, which “polyreactivity (PSR sort gate)” value is on record?
**A.** high polyreactivity

**Q.** With “QVQLVESGGGLVQAGGSLRLSCAASGFIFRYYDMGWYRQAPGKERELVAAISWRGGRTYYADSVKGRFTISRDNAKNTVYLQMNSLKPEDTAVYYCAAGFSLWTYPKPYGEDYWGQGTQVTVSS” as the sequence, how does the “polyreactivity (PSR sort gate)” value read?
**A.** high polyreactivity

**Q.** With “QVQLVESGGGLVQAGGSLRLSCAASGFIFRYYTMRWYRQAPGKERELVAVITSGGTTYYADSVKGRFTISRDNAMNTVYLQMNSLKPEDTAVSYCAADYRPRLYGVGVDYWGQGTQVTVSS” as the sequence, how does the “polyreactivity (PSR sort gate)” value read?
**A.** low polyreactivity

**Q.** With “QVQLVESGGGLVQAGGSLRLSCAASGFIFSDYAMGWYRQAPGKERELVAGISDSGGDTYYADSVKGRFTISRDNAKYTVYFQMYSLKPDDTAVYYCAADVELWVFRGQQYDYWGQGTQVTVSS” as the sequence, how does the “polyreactivity (PSR sort gate)” value read?
**A.** low polyreactivity

**Q.** Which “polyreactivity (PSR sort gate)” value does the source give for “QVQLVESGGGLVQAGGSLRLSCAASGFIFSFYAMGWYRQAPGKESELVAAITSSGATTYYADSVKGRFTISRDNAKNTVYLQMNSLKPVDTAVYYCNAVYRRDTGYYRYYYWGQGTQVTVSS” here?
**A.** high polyreactivity

**Q.** With “QVQLVESGGGLVQAGGSLRLSCAASGFIFSIYALGWYRQAPGKERELVAAISKSGGRTYYADSVKGRFTISRDNAKNTVYLQMNSLKPEDTAVYYCAVDSYYKYDYWGQGTQVTVSS” as the sequence, how does the “polyreactivity (PSR sort gate)” value read?
**A.** high polyreactivity

**Q.** Which “polyreactivity (PSR sort gate)” value does the source give for “QVQLVESGGGLVQAGGSLRLSCAASGFIFSIYAMGLYRQAPGTERELVAGIDNGGGTYYADSVKGRFTISRDNAKNTVYLQMNSLKPEDTAVYYCAADTYSIGELYDYWGQGTQVNVSS” here?
**A.** low polyreactivity

**Q.** With “QVQLVESGGGLVQAGGSLRLSCAASGFIFSKNAMGWYRQAPGKERELVAAISTRGGSTYYADSVKGRFTISRDNAKNTVYLQMNSLKPEDTAVYYCNKEWYPYKHNYWGQGTQVTVSS” as the sequence, how does the “polyreactivity (PSR sort gate)” value read?
**A.** low polyreactivity

**Q.** For “QVQLVESGGGLVQAGGSLRLSCAASGFIFSNNAMGWYRQAPGKERELVASISSSSRTYYADSVKGRFTISRDNAKNTVYLQMNSLKPEDTAVYYCAAVFRWWGTRVDYWGQGTQVTVSS”, which “polyreactivity (PSR sort gate)” value is on record?
**A.** high polyreactivity

**Q.** For “QVQLVESGGGLVQAGGSLRLSCAASGFIFSNYAMGWYRQAPGKERELVAAISWSGTRTYYADSVKGRFTISRDNAKNTVYLQMNSLKPEDTAVYYCAAYGVYLYDYWGQGTQVTVSS”, which “polyreactivity (PSR sort gate)” value is on record?
**A.** low polyreactivity

**Q.** Which “polyreactivity (PSR sort gate)” value does the source give for “QVQLVESGGGLVQAGGSLRLSCAASGFIFSQYAMGWYRQAPGKERELVAAISYSGGSTYYADSVKGRFTISRDNAKNTVYLQMNSLKPEDTAVYYCAVSGRSYYRSDYWGQGTQVTVSS” here?
**A.** high polyreactivity

**Q.** With “QVQLVESGGGLVQAGGSLRLSCAASGFIFSRNAMGWYRQAPGKERELVAVISTRGGSTYYADSVKGRFTISRDNAKNTVYLQMNSLKPEDTAVYYCAARRTRGYEYWGQGTQVTVSS” as the sequence, how does the “polyreactivity (PSR sort gate)” value read?
**A.** high polyreactivity

**Q.** Which “polyreactivity (PSR sort gate)” value does the source give for “QVQLVESGGGLVQAGGSLRLSCAASGFIFSRNAMGWYRQAPGKERELVDRISRSGGRTYYADSVKGRFTISRDNAKNTVYLQMNSLKPEDTAVYYCATDHVRQSPYDYWGQGTQVTVSS” here?
**A.** high polyreactivity

**Q.** For “QVQLVESGGGLVQAGGSLRLSCAASGFIFSRNVMGWYRQAPGKERELVAAISRSGGSTYYADSVKGRFTISRDNAKNTVYLQMNSLKPEDTAVYYCAASRINYVYLLKGDYWGQGTQVTVSS”, which “polyreactivity (PSR sort gate)” value is on record?
**A.** high polyreactivity

**Q.** With “QVQLVESGGGLVQAGGSLRLSCAASGFIFSRYAMGWARQAPGKERELVAAIRFSGSMTYYADSVKGRFTISRDTAKNTVYLQMNSLKPEDTAVYYCAAALTYFKRVYYWGQGTQVTVSS” as the sequence, how does the “polyreactivity (PSR sort gate)” value read?
**A.** high polyreactivity
